Laboratory results taken from patent EP4541814A1.

Molecular target: AAV9 viral particles (adeno-associated virus 9)
Assay: SPR (Biacore 8K+), biotinylated ligand on SA chip (4128 RU), AAV9 2E12 vp/ml

Question: How did the AAV9 capacity, 2E12 vp/ml (RU) turn out when “CaptureSelect Biotin Anti-AAV9 Conjugate (ThermoFisher Scientific)” was run?
Answer: 8860 RU
